In publication PMC3288673:

Target: T1, Rev-Erbα (UniProt P20393 1-614)
T1 sequence: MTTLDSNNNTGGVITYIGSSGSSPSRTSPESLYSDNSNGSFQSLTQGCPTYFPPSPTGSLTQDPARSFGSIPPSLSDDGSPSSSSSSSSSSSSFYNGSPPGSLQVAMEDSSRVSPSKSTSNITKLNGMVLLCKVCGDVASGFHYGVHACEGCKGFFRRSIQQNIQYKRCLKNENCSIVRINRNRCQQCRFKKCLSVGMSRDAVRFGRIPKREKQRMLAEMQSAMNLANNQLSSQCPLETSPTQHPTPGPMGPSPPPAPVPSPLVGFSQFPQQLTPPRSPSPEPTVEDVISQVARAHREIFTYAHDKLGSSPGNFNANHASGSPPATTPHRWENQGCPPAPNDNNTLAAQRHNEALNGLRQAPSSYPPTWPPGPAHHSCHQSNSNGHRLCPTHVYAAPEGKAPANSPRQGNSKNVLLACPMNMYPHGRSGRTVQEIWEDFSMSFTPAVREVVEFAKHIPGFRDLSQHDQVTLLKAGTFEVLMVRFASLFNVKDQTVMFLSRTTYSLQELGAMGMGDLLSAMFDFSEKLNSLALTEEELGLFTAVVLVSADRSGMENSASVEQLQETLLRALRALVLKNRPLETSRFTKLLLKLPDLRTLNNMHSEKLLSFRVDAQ
Assay: EMSA

B1: RevDR2 (dsDNA)
DNA 1: AGCTCCAACTAGGTCACTAGGTCAAAGGGA
DNA 2: TCGATCCCTTTGACCTAGTGACCTAGTTGG
Q: Does B1 bind?
A: binds
